Read-outs that look alike come from different tables or passages of the source.
B1: SSAP_15: SEQ ID NO: 184 (protein)
chain: AKNELAKGSYLTDLQKLDGNTLRDFVDPKHQASPQELQALLAIVKGRNLNPFTKEVYFIKYGSAPAQIVVSKEAIMKRAEENPDFDGFEAGIVVETKDGAIERLTGTIVPKSATLRGGWCKVYRKDRSHAIEADADFAYYTTSKNLWQKMPALMIRKVAIVSAFREAFSESVGGLYTADEMQRETQAEVRARKMKEAYEEKLYLLTQMEAKSYKKTKSKNENEAKKTKEAEAIETVEEPTQDGNLEW
B2: SSAP_36: SEQ ID NO: 205 (protein)
chain: SSIAAAAESAEVTPASIINKYRDDIATVLPPKLRERIDRWIRLAIGAVNSNPELISRVRADQGASMMQALMKCAALGHEPGSGLFHLVPKGSRIEGWEDYKGILQRIDRSGVYARTVIGVVYANDEYSYDQNVDERPRHVRATGDRGEPISSYAYAVYPSGAITTVAEATPEQIASSKSKARGADNAASPWRAPGAPMHRKVAVRLLEKHVATSAEDRREPISRSAANDVVIDATADYYQEP
B3: SSAP_221: SEQ ID NO: 390; Streptomyces sp. 351MFTsu5.1 (protein, listed as Streptomyces sp.)
chain: SQISNAIEKRDQGPGAVIEQYKQELALVAASHVKVDTFARLAVGALRQNPKLAAAAQSNPGSLMSALMTAARLGLEPGTEQFYLRPIKRKGVAEVQGIVGYQGIVELIYNAGAASSVVVEVVRANDQFNYVPGLHERPVHNVDWFGDRGDLVGVYAYAVMAGGATSKVVVLSRTHINRAKAKSDGADSDYSPWRTDEEAMWLKTAARRLGKWVPTSAERLTMPAERTDTVLPVGSAAPALDAADPDEDEGPVDGELEPAGGWPETAQPPQ
B4: Homolog_T1: RecT, Pantoea stewartii; SEQ ID NO: 115 (protein, listed as Pantoea stewartii)
chain: MSNQPPIASADLQKANTGKQVANKTPEQTLVGFMNQPAMKSQLAAALPRHMTADRMIRIVTTEIRKTPALATCDQSSFIGAVVQCSQLGLEPGSALGHAYLLPFGNGRSKSGQSNVQLIIGYRGMIDLARRSGQIVSLSARVVRADDEFSFEYGLDENLIHRPGENEDAPITHVYAVARLKDGGTQFEVMTVKQIEKVKAQSKASSNGPWVTHWEEMAKKTVIRRLFKYLPVSIEMQKAVILDEKAESDVDQDNASVLSAEYSVLDGSSEE
B5: SSAP_309: SEQ ID NO: 478; Paenibacillus sp. FSL R7-0333 (protein, listed as Paenibacillus sp.)
chain: TVAIELQVQETLDRILDSKHDALPSDFNKKRFSENCKAYVADEKDLHKYSPEEIAANLFKGAVLGLDFLAKECHLISGGVELKFQTDYKGEMKLTKKYSVRPLLDVYAKNVREGDEFREEVIEGRPVIHFAPLPFNASSIIGSFAVALFQDGGMVYESIPAGEIEEIRKNYGKSLGDAWDKSQGEMYKRTVLRRLCKTIETDFDAEQRLIYDAGGAFEFTKQPARSRQQSPFNPPEESEVTQDDRVAETDQG
B6: SSAP_194: SEQ ID NO: 363; Streptomyces sp. CS014 (protein, listed as Streptomyces sp.)
chain: TENTVTAAVAVRDTGPAAQIEAYRDEYAALVPSHINADQWVRLAVGAIRGNEDLTNAARTDIGVFLRELKTAARLGLEPGTEQFYLTPRKSKAHRGQKIIKGIVGYQGIIELIYRAGAVSSVIVESVRANDTFRYVIGRDERPVHEIDWFGGDRGDLVGVYAYATMKDGATSKVVVLNHAQVMQIRAKSDSKHSEYSPWNTNPESMWLKSAVRQLMKWVPTSAEYMREQLRAQAEVAAEQPPAADLPPMPSVELNDEDEAVDAELVDEEA
B7: SSAP_198: SEQ ID NO: 367; Streptomyces sp. ms191 (protein, listed as Streptomyces sp.)
chain: VEHYKADLAQVMPSHVKPDTFIRLAVGVLRRDRNLAQAAQNNPAALMGALMDAAQLGLTPGTEQFYLVPRKKAGRLEVQGIRGYQGEIELIYRAGAVSSVIVEVVRQADTFRYSPGRDERPEHEIDWDAEDRGPLRLVYAYAVMKDGATSKVVVLNRAQVMKAKAMSQGSDSAYSPWQKHEEAMWMKTAAHRLTKWVPTSAEYMREQLRAAAEVAAEHRPTPVAAAPGMPSVPGEDEAIEAEFVDEDEVA
B8: SSAP_229: SEQ ID NO: 398; Amycolatopsis sp. CB00013 (protein, listed as Amycolatopsis sp.)
chain: TTQTVTSAVAQQDSSPAALVRKYRTDFATVLPSHIKPETWLRIATGALRRSSQLAHAAEKNPTSLLVALLDAARKGLEPGTEQYYLVPRKTKRGPEVLGITGYQGEVELMYRAGAVSSVKVEGVREHDTFAYNPGEHDRPVHEINWRANRGDLVLAYAYAYAKMRDGATSNVSVLSADDIAVILSKAEGADSPFSPWQWNPKAMWLKSAAHQLAKWVPTSAERVWQPDGPPLEAPPATPVTLPTVEDVVDAEVVEDWPTTPADTADSEQ
B9: SSAP_199: SEQ ID NO: 368; uncultured Mediterranean phage uvMED (protein)
chain: TSSITPLVAMQGTLEKMADKFTEALPRQMDVNKFISVAKLTLNKNPRLLQADKTSLMQTFMKAAQDGLYLDGKEAAAVQYGQSVQYIPMVEGIIKVLHNSGLIKTISAEVVYENDFFDYELGTAPKITHKPLIVGDRGKPMCVYAVAITTNDGEYYEVMNMDQINQCRQVSKASSSPHSPWVKWFDQMAKKTVIHRIAKRLPKNDAINSVVTVDDEPNFQQAVNVTPSEPKDSLSRLRDSIGMEGKDVEQAANDLLEKYNKEAREE
modifications: uncultured Mediterranean phage uvMED

Experiments:
[1] = system: endogenous genome targets (ACTB, HSP90AA1); assay: Arrayed SSAP library screening, mKate knock-in assay (editing efficiency); assay type: cell-based; conditions: average of HSP90 and ACTB, 3 days after transfection; for Editing Efficiency (Normalized, Average, two targets): fold over negative control (Flag_HA); for Editing Efficiency (Absolute, Average, two targets): percent of mKate knock-in
Method in brief: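 Mammalian cells in duplicate were transfected with SSAP-encoding plasmids, with about 50% transfection efficiency. mKate knock-in positive cells and viability, by flow-cytometric live counts, were quantified three days later. RecT SSAP served as positive control and Flag-HA plasmid as negative control.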

gene editing with Cas9 = assay: Screen of 322 new SSAP proteins, gene editing activity with Cas9 (Table 5); assay type: cell-based; set-up: Cas9 with SSAP activity: scale not given here
Method in brief: (§1)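 Read-out is gene editing activity. Candidates come from sequence data mining, are made synthetically, and are tested alongside either nuclease-active Cas9 or catalytically dead dCas9.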

mammalian cells = assay: Arrayed SSAP library screening, cell viability by live cell counts via flow cytometry; assay type: cell-based
Method in brief: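 Each SSAP plasmid transfected in duplicate (~50% efficiency), with RecT SSAP as positive and Flag-HA as negative control. After three days, mKate-positive cells and viability by flow-cytometric live cell counts were quantified to gauge SSAP fitness effects.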

[2] = system: gene editing with Cas9 and dCas9; assay: Screen of 322 new SSAP proteins, activity across all experiments (Cas9 and dCas9, Table 5); assay type: cell-based; set-up: scale not given here
Method in brief: as §1

gene editing with dCas9 = assay: Screen of 322 new SSAP proteins, gene editing activity with dCas9 (Table 5); assay type: cell-based; set-up: dCas9 with SSAP activity: scale not given here
Method in brief: as §1

DYNLT1 locus = assay: mKate knock-in gene-editing assay, RecE/RecT homologs, DYNLT1 locus; assay type: cell-based, human; conditions: HEK293 cells, MCP fusion, n=3
Method: (§2) Transfection HEK293T cells were seeded into 96-well plates (Corning) 12-24 hours prior to transfection at a density of 30,000 cells/well, and 250 ng of total DNA was transfected per well. HeLa and HepG2 cells were seeded into 48-well plates (Corning) one day prior to transfection at a density of 50,000 and 30,000 cells/well respectively, and 400 ng of total DNA was transfected per well. Transfections were performed with Lipofectamine 3000 (Life Technologies) following the manufacturer's instructions.
(§3) Fluorescence-activated cell sorting (FACS) mKate knock-in efficiency was analyzed on a CytoFLEX flow cytometer (Beckman Coulter; Stanford Stem Cell FACS Core). 72 hours after transfection, cells were washed once with PBS and dissociated with TrypLE Express Enzyme (Thermo Fisher Scientific). Cell suspension was then transferred to a 96-well U-bottom plate (Thermo Fisher Scientific) and centrifuged at 300×G for 5 minutes. After removing the supernatant, pelleted cells were resuspended with 50 μl 4% FBS in PBS, and cells were sorted within 30 minutes of preparation.
(§4) 15 different species of microbes having RecE/RecT proteins were selected for a screen of various RecE and RecT proteins across the microbial kingdom (Table 3). Each protein was codon-optimized and synthesized. As previously described for E. coli RecE/RecT based REDIT systems, each protein was fused via E-XTEN linker to the MCP protein with additional nuclear localization signal. mKate knock-in gene-editing assay was used to measure efficiencies at DYNLT1 locus (FIG. 26A, Table 4) and HSP90AA1 locus (FIG. 26B, Table 4).

HSP90AA1 locus = assay: mKate knock-in gene-editing assay, RecE/RecT homologs, HSP90AA1 locus; assay type: cell-based, human; conditions: HEK293 cells, MCP fusion, n=3
Method: as §2, §3, §4

Molecule	Editing Efficiency (Normalized, Average, two targets) [1]	Editing Efficiency (Absolute, Average, two targets) [1]	Cas9 with SSAP activity (gene editing with Cas9)	Cas9 with SSAP activity (normalized) (gene editing with Cas9)	Cell Viability (Average, two targets) (mammalian cells)	Activity across all experiments [2]	dCas9 with SSAP activity (gene editing with dCas9)	dCas9 with SSAP activity (normalized) (gene editing with dCas9)	Mean mKate+ (%), DYNLT1 (DYNLT1 locus) [%]	Mean mKate+ (%), HSP90AA1 (HSP90AA1 locus) [%]	Cell Viability (Average, two targets) (mammalian cells; live cell counts via flow cytometry, average of HSP90 and ACTB)
B1	5.477	13.55	−1.876	−0.850	1.226	−1.288	−0.701	−2.250			
B2	6.383	15.8	−4.118	−0.619	0.9418	−6.514	−8.909	−1.787			
B3	4.587	11.35	−4.494	−0.728	0.9772	−6.275	−8.056				
B4									11.7333	8.0733	
B5	3.992	9.885	−3.975	−1.807	0.9224	−6.697	−9.420	−2.412			
B6	4.924	12.175	2.727	3.516	1.139	−3.031	−8.790				
B7	5.524	13.65	−4.061	−0.571	0.4444	−3.320	−2.578	−0.849			
B8	3.971	9.8525	−2.969	−0.509	0.8776	−6.122	−9.275				
B9	4.602	11.4025	−7.274	−1.400		−4.877	−2.480	−0.364			0.5186

Source: patent publication US20250034594A1, “RNA-GUIDED GENOME RECOMBINEERING AT KILOBASE SCALE” (THE BOARD OF TRUSTEES OF THE LELAND STANFORD JUNIOR …, priority 2021, published 2025)
